Experimental data: paper PMC9482650, “Quantitative fragmentomics allow affinity mapping of interactomes” (Nature Communications, 2022)

What was measured:
Test in all cases: holdup assay
Design in all cases: key: below the threshold = too weak to quantify, mostly under pKd 3.1 to 4
MAST3, O60307 = biological target: MAST3, O60307
NHERF4_3, Q86UT5 = biological target: NHERF4_3, Q86UT5
PTPN4, P29074 = biological target: T1, PTPN4, P29074
T1 sequence (P29074 512-599, limits assumed, looked up): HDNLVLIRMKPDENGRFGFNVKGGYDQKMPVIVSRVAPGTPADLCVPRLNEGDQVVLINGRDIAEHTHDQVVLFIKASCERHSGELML

PDZD8, Q8NEN9 = biological target: T2, PDZD8, Q8NEN9
T2 sequence (Q8NEN9 361-459, limits assumed, looked up): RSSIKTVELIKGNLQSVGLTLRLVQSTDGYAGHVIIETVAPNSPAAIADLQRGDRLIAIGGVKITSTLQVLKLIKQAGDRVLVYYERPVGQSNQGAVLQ

SHROOM2, Q13796 = biological target: T3, SHROOM2, Q13796
T3 sequence (Q13796 21-118, limits assumed, looked up): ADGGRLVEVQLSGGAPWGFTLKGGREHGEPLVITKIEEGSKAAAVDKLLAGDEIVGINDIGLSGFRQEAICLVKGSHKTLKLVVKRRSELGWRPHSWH

SHROOM3, Q8TF72 = biological target: T4, SHROOM3, Q8TF72
T4 sequence (Q8TF72 20-120, limits assumed, looked up): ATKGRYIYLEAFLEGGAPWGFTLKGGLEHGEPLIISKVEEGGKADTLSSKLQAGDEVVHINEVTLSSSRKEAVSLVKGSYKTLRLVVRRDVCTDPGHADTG

MPDZ_12, O75970 = biological target: T5, MPDZ_12, O75970
T5 sequence (O75970 1857-1958, limits assumed, looked up): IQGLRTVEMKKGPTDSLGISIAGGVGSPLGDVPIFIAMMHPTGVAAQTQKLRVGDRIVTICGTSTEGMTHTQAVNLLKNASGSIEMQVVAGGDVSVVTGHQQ

MAGI3_3, Q5TCQ9 = biological target: MAGI3_3, Q5TCQ9
PDZD4, Q76G19 = biological target: T6, PDZD4, Q76G19
T6 sequence (Q76G19 125-224, limits assumed, looked up): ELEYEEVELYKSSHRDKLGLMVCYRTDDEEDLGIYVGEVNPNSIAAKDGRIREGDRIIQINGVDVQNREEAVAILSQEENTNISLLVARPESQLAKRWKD

PTPN13_2, Q12923 = biological target: PTPN13_2, Q12923
RIMS2, Q9UQ26 = biological target: RIMS2, Q9UQ26
PDZD9, Q8IXQ8 = biological target: PDZD9, Q8IXQ8
TJP1_3, Q07157 = biological target: TJP1_3, Q07157
GRIP2_2, Q9C0E4 = biological target: GRIP2_2, Q9C0E4
Inadl_7, Q8NI35 = biological target: Inadl_7, Q8NI35
SDCBP_1, O00560 = biological target: SDCBP_1, O00560
MPDZ_2, O75970 = biological target: T7, MPDZ_2, O75970
T7 sequence (O75970 252-347, limits assumed, looked up): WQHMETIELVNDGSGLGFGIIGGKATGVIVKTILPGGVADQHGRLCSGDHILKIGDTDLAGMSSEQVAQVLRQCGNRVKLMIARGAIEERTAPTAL

PARD3_1, Q8TEW0 = biological target: PARD3_1, Q8TEW0
DVL1, O14640 = biological target: T8, DVL1, O14640
T8 sequence (O14640 246-333, limits assumed, looked up): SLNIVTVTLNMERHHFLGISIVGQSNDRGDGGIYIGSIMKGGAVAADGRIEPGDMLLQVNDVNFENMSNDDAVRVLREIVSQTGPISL

PCLO, Q9Y6V0 = biological target: T9, PCLO, Q9Y6V0
T9 sequence (Q9Y6V0 4491-4600, limits assumed, looked up): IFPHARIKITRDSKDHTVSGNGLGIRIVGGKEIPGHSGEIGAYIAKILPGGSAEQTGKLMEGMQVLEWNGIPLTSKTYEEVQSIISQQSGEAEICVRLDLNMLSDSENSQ

MPP5, Q8N3R9 = biological target: T10, MPP5, Q8N3R9
T10 sequence (Q8N3R9 251-346, limits assumed, looked up): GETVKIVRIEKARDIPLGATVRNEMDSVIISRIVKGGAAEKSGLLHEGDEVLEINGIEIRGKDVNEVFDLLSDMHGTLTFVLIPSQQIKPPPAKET

MAGI3_6, Q5TCQ9 = biological target: MAGI3_6, Q5TCQ9
MAGI2_1, Q86UL8 = biological target: T11, MAGI2_1, Q86UL8
T11 sequence (Q86UL8 12-111, limits assumed, looked up): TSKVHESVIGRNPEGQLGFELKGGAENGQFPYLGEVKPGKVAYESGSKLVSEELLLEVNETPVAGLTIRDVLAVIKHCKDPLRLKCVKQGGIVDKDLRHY

APBA3_2, O96018 = biological target: T12, APBA3_2, O96018
T12 sequence (O96018 480-570, limits assumed, looked up): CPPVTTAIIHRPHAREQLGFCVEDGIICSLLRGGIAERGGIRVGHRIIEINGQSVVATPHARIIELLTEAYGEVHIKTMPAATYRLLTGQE

MAGI3_5, Q5TCQ9 = biological target: MAGI3_5, Q5TCQ9
[1] = plain residues with an end cap or a label only (N-terminal biotin on a linker: none)
[2] = plain residues with an end cap or a label only (N-terminal biotin on a linker: ttds)

Chain of PTPN13_2, Q12923 (Q12923 1363-1462): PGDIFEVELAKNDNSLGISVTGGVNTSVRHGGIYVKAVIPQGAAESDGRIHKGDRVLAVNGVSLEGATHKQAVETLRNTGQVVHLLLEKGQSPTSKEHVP
Chain of MAGI3_6, Q5TCQ9 (Q5TCQ9 1014-1103): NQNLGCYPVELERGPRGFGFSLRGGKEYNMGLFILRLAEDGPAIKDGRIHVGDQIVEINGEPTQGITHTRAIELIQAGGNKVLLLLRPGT
Chain of MAGI3_3, Q5TCQ9 (Q5TCQ9 572-655): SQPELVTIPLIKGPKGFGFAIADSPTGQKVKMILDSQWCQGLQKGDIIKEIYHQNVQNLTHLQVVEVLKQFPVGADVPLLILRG
Chain of MAST3, O60307 (O60307 945-1048): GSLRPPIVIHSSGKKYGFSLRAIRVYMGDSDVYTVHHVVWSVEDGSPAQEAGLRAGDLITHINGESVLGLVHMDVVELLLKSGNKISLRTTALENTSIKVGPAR
Chain of TJP1_3, Q07157 (Q07157 416-512): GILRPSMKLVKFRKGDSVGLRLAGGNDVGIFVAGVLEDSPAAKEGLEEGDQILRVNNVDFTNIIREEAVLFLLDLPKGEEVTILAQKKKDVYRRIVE
Chain of PARD3_1, Q8TEW0 (Q8TEW0 264-372): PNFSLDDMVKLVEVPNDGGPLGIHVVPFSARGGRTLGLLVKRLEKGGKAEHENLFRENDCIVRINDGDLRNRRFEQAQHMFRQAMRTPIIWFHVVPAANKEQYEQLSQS
Chain of RIMS2, Q9UQ26 (Q9UQ26 637-758): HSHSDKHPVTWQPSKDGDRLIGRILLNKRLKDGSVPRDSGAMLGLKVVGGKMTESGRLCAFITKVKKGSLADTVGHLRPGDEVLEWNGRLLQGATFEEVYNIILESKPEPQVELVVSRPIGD
Chain of NHERF4_3, Q86UT5 (Q86UT5 325-412): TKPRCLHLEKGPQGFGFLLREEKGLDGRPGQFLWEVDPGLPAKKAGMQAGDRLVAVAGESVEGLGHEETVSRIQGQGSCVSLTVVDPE
Chain of SDCBP_1, O00560 (O00560 111-198): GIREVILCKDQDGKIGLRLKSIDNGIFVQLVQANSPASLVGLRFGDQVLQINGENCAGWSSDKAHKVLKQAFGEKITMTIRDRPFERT
Chain of MAGI3_5, Q5TCQ9 (Q5TCQ9 847-941): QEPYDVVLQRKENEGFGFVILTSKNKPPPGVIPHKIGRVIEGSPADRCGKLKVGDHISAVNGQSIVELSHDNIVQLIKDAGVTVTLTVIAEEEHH
Chain of Inadl_7, Q8NI35 (Q8NI35 1219-1332): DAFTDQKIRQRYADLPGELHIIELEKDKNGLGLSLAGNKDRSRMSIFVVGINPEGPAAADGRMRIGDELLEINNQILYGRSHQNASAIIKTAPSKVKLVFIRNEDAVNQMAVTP
Chain of GRIP2_2, Q9C0E4 (Q9C0E4 137-245): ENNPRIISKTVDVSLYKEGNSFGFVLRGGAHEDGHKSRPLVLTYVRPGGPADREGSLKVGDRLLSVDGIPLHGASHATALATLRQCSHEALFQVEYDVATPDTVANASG
Chain of PDZD9, Q8IXQ8 (Q8IXQ8 23-120): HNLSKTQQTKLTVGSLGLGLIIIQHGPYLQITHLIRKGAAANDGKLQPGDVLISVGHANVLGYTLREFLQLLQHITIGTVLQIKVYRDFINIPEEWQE

B1: MERS-E, K9N5R3 (peptide)
chain: DSKPPLPPDEWV
- pKd (MAST3, O60307; [1]): below the threshold
- pKd (NHERF4_3, Q86UT5; [1]): below the threshold
- pKd (PTPN4, P29074; [1]): below the threshold
- pKd (PDZD8, Q8NEN9; [1]): below the threshold
- pKd (SHROOM2, Q13796; [1]): below the threshold
- pKd (SHROOM3, Q8TF72; [1]): below the threshold
- pKd (MPDZ_12, O75970; [1]): below the threshold
- pKd (MAGI3_3, Q5TCQ9; [1]): below the threshold
- pKd (PDZD4, Q76G19; [1]): below the threshold
- pKd (PTPN13_2, Q12923; [1]): 4.35
- pKd (RIMS2, Q9UQ26; [1]): 4.39
- pKd (PDZD9, Q8IXQ8; [1]): below the threshold
- pKd (TJP1_3, Q07157; [1]): 3.56
- pKd (GRIP2_2, Q9C0E4; [1]): below the threshold
- pKd (Inadl_7, Q8NI35; [1]): below the threshold
- pKd (SDCBP_1, O00560; [1]): 4.12
- pKd (MPDZ_2, O75970; [1]): below the threshold
- pKd (PARD3_1, Q8TEW0; [1]): below the threshold
- pKd (DVL1, O14640; [1]): below the threshold
- pKd (PCLO, Q9Y6V0; [1]): below the threshold
- pKd (MPP5, Q8N3R9; [1]): 4.03
- pKd (MAGI3_6, Q5TCQ9; [1]): 4.03
- pKd (MAGI2_1, Q86UL8; [1]): below the threshold
- pKd (APBA3_2, O96018; [1]): below the threshold
- pKd (MAGI3_5, Q5TCQ9; [1]): below the threshold

B2: HPV51-E6, P26554 (peptide)
chain: RTRQRNETQV
- pKd (MAST3, O60307; [2]): below the threshold
- pKd (NHERF4_3, Q86UT5; [2]): below the threshold
- pKd (PTPN4, P29074; [2]): below the threshold
- pKd (PDZD8, Q8NEN9; [2]): below the threshold
- pKd (SHROOM2, Q13796; [2]): below the threshold
- pKd (SHROOM3, Q8TF72; [2]): below the threshold
- pKd (MPDZ_12, O75970; [2]): below the threshold
- pKd (MAGI3_3, Q5TCQ9; [2]): below the threshold
- pKd (PDZD4, Q76G19; [2]): below the threshold
- pKd (PTPN13_2, Q12923; [2]): below the threshold
- pKd (RIMS2, Q9UQ26; [2]): below the threshold
- pKd (PDZD9, Q8IXQ8; [2]): below the threshold
- pKd (TJP1_3, Q07157; [2]): below the threshold
- pKd (GRIP2_2, Q9C0E4; [2]): below the threshold
- pKd (Inadl_7, Q8NI35; [2]): below the threshold
- pKd (SDCBP_1, O00560; [2]): below the threshold
- pKd (MPDZ_2, O75970; [2]): below the threshold
- pKd (PARD3_1, Q8TEW0; [2]): below the threshold
- pKd (DVL1, O14640; [2]): 4.86
- pKd (PCLO, Q9Y6V0; [2]): below the threshold
- pKd (MPP5, Q8N3R9; [2]): below the threshold
- pKd (MAGI3_6, Q5TCQ9; [2]): below the threshold
- pKd (MAGI2_1, Q86UL8; [2]): below the threshold
- pKd (APBA3_2, O96018; [2]): below the threshold
- pKd (MAGI3_5, Q5TCQ9; [2]): below the threshold

B3: ASIC3, Q9UHC3 (peptide)
chain: HRTCYLVTQL
- pKd (MAST3, O60307; [2]): 4.04
- pKd (NHERF4_3, Q86UT5; [2]): 4.13
- pKd (PTPN4, P29074; [2]): below the threshold
- pKd (PDZD8, Q8NEN9; [2]): below the threshold
- pKd (SHROOM2, Q13796; [2]): below the threshold
- pKd (SHROOM3, Q8TF72; [2]): below the threshold
- pKd (MPDZ_12, O75970; [2]): 3.34
- pKd (MAGI3_3, Q5TCQ9; [2]): below the threshold
- pKd (PDZD4, Q76G19; [2]): below the threshold
- pKd (PTPN13_2, Q12923; [2]): below the threshold
- pKd (RIMS2, Q9UQ26; [2]): below the threshold
- pKd (PDZD9, Q8IXQ8; [2]): below the threshold
- pKd (TJP1_3, Q07157; [2]): below the threshold
- pKd (GRIP2_2, Q9C0E4; [2]): 4.28
- pKd (Inadl_7, Q8NI35; [2]): 4.05
- pKd (SDCBP_1, O00560; [2]): below the threshold
- pKd (MPDZ_2, O75970; [2]): below the threshold
- pKd (PARD3_1, Q8TEW0; [2]): below the threshold
- pKd (DVL1, O14640; [2]): below the threshold
- pKd (PCLO, Q9Y6V0; [2]): below the threshold
- pKd (MPP5, Q8N3R9; [2]): below the threshold
- pKd (MAGI3_6, Q5TCQ9; [2]): below the threshold
- pKd (MAGI2_1, Q86UL8; [2]): 4.01
- pKd (APBA3_2, O96018; [2]): below the threshold
- pKd (MAGI3_5, Q5TCQ9; [2]): 4.64
